# Measurements from US20140179896A1 (published 2014).
# Key:
# [1] = target: T1, mouse vascular endothelial growth factor receptor-2 Fc chimera (Flk-1-Fc) (mouse, UniProt P35918 20-762); experiment: KD against mouse Flk-1 by the BIAcore binding assay; value not given
# T1 construct: Purchased from R&D Systems; also called mouse VEGF-R2; not shown: Fc part of the purchased chimera
# Method: Following the methodologies described in the preceding Examples, additional ¹⁰Fn3-based KDR binding proteins were generated. As described for the development of the M5FL protein in Example 5, above, proteins were tested for KD against human KDR and mouse Flk-1 using the BIAcore binding assay and for IC50 in a Ba/F3 assay.
# (§1) The binding kinetics of fibronectin-based scaffold proteins binding proteins to the target was measured using BIAcore 2000 biosensor (Pharmacia Biosensor). Human and mouse VEGF-R2-Fc fusions were immobilized onto a CM5 sensor chip and soluble binding proteins were injected at concentrations ranging from 0 to 100 nM in buffer 0 (10 mM HEPES, 150 mM NaCl, 0.005% Tween 20, pH 7.4). Sensorgrams were obtained at each concentration and were evaluated using a program, BIA Evaluation 2.0 (BIAcore), to determine the rate constants kₐ (kₒₙ) and kd (koff.) The affinity constant, KD was calculated from the ratio of rate constants […].
# T1 sequence (P35918 20-762, stated change not applied): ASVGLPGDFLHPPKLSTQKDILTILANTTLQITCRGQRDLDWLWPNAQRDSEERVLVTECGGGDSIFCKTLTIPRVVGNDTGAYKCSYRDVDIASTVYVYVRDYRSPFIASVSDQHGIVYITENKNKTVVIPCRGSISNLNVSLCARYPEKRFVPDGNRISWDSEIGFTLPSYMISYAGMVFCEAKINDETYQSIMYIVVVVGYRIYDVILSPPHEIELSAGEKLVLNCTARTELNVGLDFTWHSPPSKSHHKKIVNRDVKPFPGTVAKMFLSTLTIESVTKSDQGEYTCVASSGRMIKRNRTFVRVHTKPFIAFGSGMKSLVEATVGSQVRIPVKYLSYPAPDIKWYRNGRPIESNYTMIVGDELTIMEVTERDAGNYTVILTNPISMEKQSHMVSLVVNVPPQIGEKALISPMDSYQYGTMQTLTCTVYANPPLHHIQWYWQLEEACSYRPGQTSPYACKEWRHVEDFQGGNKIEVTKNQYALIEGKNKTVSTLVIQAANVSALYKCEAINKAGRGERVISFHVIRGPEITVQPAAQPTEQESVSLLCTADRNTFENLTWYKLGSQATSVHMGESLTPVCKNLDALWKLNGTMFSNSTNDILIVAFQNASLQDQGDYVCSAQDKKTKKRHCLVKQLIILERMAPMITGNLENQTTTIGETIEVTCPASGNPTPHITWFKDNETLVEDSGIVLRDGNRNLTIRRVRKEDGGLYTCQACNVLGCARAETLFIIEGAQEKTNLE
# [2] = target: T2, mouse vascular endothelial growth factor receptor-2 Fc chimera (Flk-1-Fc) (mouse, UniProt P35918 20-762); experiment: radioactive equilibrium binding assay
# T2 construct: purchased from R&D Systems; also called mouse VEGF-R2-Fc; not shown: Fc part of the purchased chimera
# Method: (§2) To prepare ³⁵S-labeled binding proteins for analysis, mRNA was prepared as described above for RNA-protein fusion production but the linker ligation step was omitted. The mRNA was expressed using rabbit reticulocyte lysate translation kit (Ambion) in the presence of ³⁵S-labeled Met at 30° C. for 1 hour. Expressed protein was purified on M2-agarose Flag beads (Sigma) as described above. This procedure produced the encoded protein without the nucleic acid tail. In a direct binding assay, VEGF-R2-Fc fusions in concentrations ranging from 0 to 200 nM were added to a constant concentration of the purified protein (0.2 or 0.5 nM) and incubated at 30° C. for 1 hour in buffer B. The receptor-binder complexes were captured using Protein A magnetic beads for another 10 minutes at room temperature using a Kingfisher™ The beads were washed with six reaction volumes of buffer B. The protein was eluted from the beads with 100 μL of 0.1 M KOH. […] of the reaction mixture and elution were dried onto a LumaPlate-96 (Packard) and the amount of ³⁵S on the plate was measured using a TopCount NXT instrument (Packard). The amount of fibronectin-based scaffold protein bound to the target was estimated as a percent of radioactivity eluted from Protein A magnetic beads compare to radioactivity in the reaction mixture. Nonspecific binding of fibronectin-based scaffold proteins to the beads was determined by measuring binding in the absence of KDR-Fc and represented less than 1-2% of the input. Specific binding was obtained through subtraction of nonspecific binding from total binding. Data was analyzed using the GraphPad Prizm software (GraphPad Software, Inc, San Diego, Calif.), fitted using a one site, non-linear binding equation.
# T2 sequence (P35918 20-762, stated change not applied): as above
# [3] = target: T3, human vascular endothelial growth factor receptor-2 Fc chimera (KDR-Fc) (human, UniProt P35968 20-764); experiment: radioactive equilibrium binding assay
# T3 construct: range 1-764; purchased from R&D Systems; also called hKDR; human VEGF-R2-Fc; not shown: human IgG1 Fc
# Method: as §2
# [4] = target: T4, full-length human KDR on cells (human, UniProt P35968 20-1356); experiment: flow cytometry on CHO KDR cells
# T4 construct: whole, on cells; also used here as the target for the HUVEC rows (natural human endothelial cells); also called CHO KDR; CHO-KDR
# Method: (§3) The functionality of KDR and Flk-1 binding molecules in a cell culture model system was evaluated with E. coli produced binding molecules.
# (§4) Binding of fibronectin-based scaffold protein to cell-surface KDR and Flk-1 was analyzed simultaneously on VEGF-R2-expressing and control cells by flow cytometry. CHO-pcDNA3 cells (control) were released from their dishes with trypsin-EDTA, washed in Dulbecco's PBS without calcium and magnesium (D-PBS⁻; Invitrogen), and stained for 30 minutes at 37° C. with 1.5 μM CMTMR (5-(and -6)-(((4-chloromethyl)benzoyl)amino)-tetramethylrhodamine) (Molecular Probes). The cells were washed in D-PBS⁻ and incubated for a further 30 minutes at 37° C., and then resuspended in blocking buffer (D-PBS⁻/10% fetal bovine serum) on ice. CHO-KDR or CHO-Flk cells were treated identically except that CMTMR was omitted. 75,000 of CMTMR-stained CHO-pcDNA3 cells were mixed with an equal number of unstained CHO-KDR or CHO-Flk cells in each well of a V-bottom 96-well plate. All antibodies and fibronectin-based scaffold proteins were diluted in 25 μl/well of blocking buffer, and each treatment was conducted for 1 hour at 4° C. Cell mixtures were stained with His₆-tagged (SEQ ID NO: 235) fibronectin-based scaffold proteins, washed twice with cold D-PBS⁻, and then treated with 2.5 μg/ml anti-His₆ (SEQ ID NO: 235) MAb (R&D Systems), washed, and stained with 4 μg/ml Alexa Fluor 488-conjugated anti-mouse antibody (Molecular Probes). For cells treated with an anti-KDR mouse monoclonal antibody (Accurate Chemical, Westbury, N.Y.) or an anti-flk-1 goat polyclonal antibody (R&D Systems), the anti-His₆ (SEQ ID NO: 235) step was omitted, and antibody binding was detected with the species-appropriate Alexa Fluor 488 conjugated secondary antibody (Molecular Probes). Following staining, cells were resuspended in 200 μl/well D-PBS⁻/1% FBS/1 μg/ml 7-aminoactinomycin D (7-AAD; Molecular Probes) and analyzed by flow cytometry on a FACSCalibur (Becton Dickinson, San Jose, Calif.) equipped with a […].
# [5] = target: human KDR/EpoR fusion (phKE8) on Ba/F3 cells (human, UniProt P35968 20-764; P19235 251-508, limits assumed); experiment: cell-based or functional assay
# [6] = target: T5, murine VEGFR-2/EpoR chimera (flk-1/EpoR fusion, pmKE2) on cells (mouse; human, UniProt P35918 20-762; P19235 251-508, limits assumed); experiment: cell-based or functional assay
# T5 sequence (P35918 other isoform, or with tags, fused parts or gaps mutant limits assumed, form in doubt): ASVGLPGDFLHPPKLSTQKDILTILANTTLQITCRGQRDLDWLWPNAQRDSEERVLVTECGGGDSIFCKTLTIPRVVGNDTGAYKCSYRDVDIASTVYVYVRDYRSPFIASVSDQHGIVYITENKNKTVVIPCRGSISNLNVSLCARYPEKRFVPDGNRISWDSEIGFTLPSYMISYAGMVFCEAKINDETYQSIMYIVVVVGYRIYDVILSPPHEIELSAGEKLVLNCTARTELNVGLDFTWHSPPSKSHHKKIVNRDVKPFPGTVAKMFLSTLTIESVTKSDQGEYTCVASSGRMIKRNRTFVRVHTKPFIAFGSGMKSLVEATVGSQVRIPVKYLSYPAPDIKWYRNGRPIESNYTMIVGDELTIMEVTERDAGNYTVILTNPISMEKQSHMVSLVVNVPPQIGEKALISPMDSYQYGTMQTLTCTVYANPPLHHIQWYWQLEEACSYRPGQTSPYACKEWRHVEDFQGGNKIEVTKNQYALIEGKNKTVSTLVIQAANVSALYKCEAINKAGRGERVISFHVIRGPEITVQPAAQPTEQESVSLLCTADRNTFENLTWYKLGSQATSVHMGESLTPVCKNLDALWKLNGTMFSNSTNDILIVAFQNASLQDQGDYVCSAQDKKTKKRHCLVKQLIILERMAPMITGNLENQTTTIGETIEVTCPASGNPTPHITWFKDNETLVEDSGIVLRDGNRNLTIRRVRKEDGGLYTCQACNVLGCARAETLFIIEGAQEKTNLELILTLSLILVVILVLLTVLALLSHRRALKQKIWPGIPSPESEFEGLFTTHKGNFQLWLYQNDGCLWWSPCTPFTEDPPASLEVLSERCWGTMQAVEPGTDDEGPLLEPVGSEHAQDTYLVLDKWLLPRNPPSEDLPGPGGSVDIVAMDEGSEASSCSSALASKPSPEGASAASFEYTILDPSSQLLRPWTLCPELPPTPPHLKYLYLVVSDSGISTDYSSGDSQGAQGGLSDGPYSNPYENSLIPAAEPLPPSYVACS
# [7] = target: T4, full-length human KDR on cells; experiment: cell-based or functional assay
# [8] = target: T5, murine VEGFR-2/EpoR chimera (flk-1/EpoR …); experiment: flow cytometry on CHO Flk-1 cells
# Method: as §3, §4
# [9] = target: T2, mouse vascular endothelial growth …; experiment: BIAcore, target-Fc immobilized
# Method: as §1
# [10] = target: T3, human vascular endothelial growth …; experiment: BIAcore, target-Fc immobilized
# Method: as §1
# [11] = target: T3, human vascular endothelial growth …; experiment: radioactive equilibrium binding, 1 nM KDR-Fc
# In short: (§5)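 ³⁵S-Met-labeled binder protein, made by reticulocyte-lysate translation and Flag-purified, held at 0.2 or 0.5 nM with receptor-Fc (0–200 nM) for 1 h at 30° C in buffer B. Complexes captured on Protein A beads, washed, KOH-eluted. Bound signal given as % of input radioactivity minus bead-only background; one-site fit.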
# [12] = target: T3, human vascular endothelial growth …; experiment: radioactive equilibrium binding assay, KDR-Fc
# Method: as §2
# [13] = target: T3, human vascular endothelial growth …; experiment: radioactive equilibrium binding
# Method: as §2, with “In a direct binding assay, VEGF-R2-Fc fusions in concentrations ranging from 0 to 200 nM were added to a constant concentration of the purified protein (0.2 or 0.5 nM) and incubated at 30° C. for 1 hour in buffer B. The receptor-binder complexes were captured using Protein A magnetic beads for another 10 minutes at room temperature using a Kingfisher™ The beads were washed with six reaction volumes of buffer B. The protein was eluted from the beads with 100 μL of 0.1 M KOH.” left out, “Specific binding was obtained through subtraction of nonspecific binding from total binding.” left out
# [14] = target: mouse vascular endothelial growth factor receptor-2 Fc chimera (Flk-1-Fc) (mouse) (UniProt P35918); experiment: assay not given
# Sequence of mouse vascular endothelial growth factor receptor-2 Fc chimera (Flk-1-Fc) (mouse) (P35918 20-762, change not shown): as the sequence (P35918 20-762, stated change not applied) above
# [15] = target: T1, mouse vascular endothelial growth …; experiment: radioactive equilibrium binding assay with VEGFR-2-Fc chimeras (FIG. 4)
# Method: as §2, with “In a direct binding assay, VEGF-R2-Fc fusions in concentrations ranging from 0 to 200 nM were added to a constant concentration of the purified protein (0.2 or 0.5 nM) and incubated at 30° C. for 1 hour in buffer B. The receptor-binder complexes were captured using Protein A magnetic beads for another 10 minutes at room temperature using a Kingfisher™ The beads were washed with six reaction volumes of buffer B. The protein was eluted from the beads with 100 μL of 0.1 M KOH.” left out, “Specific binding was obtained through subtraction of nonspecific binding from total binding.” left out
# [16] = target: T6, human vascular endothelial growth factor receptor-2 Fc chimera (KDR-Fc) (human, UniProt P35968 20-764); experiment: binding to 1 nM KDR-Fc, % of input; radioactive equilibrium binding (assay not given)
# T6 construct: range 1-764; also called human VEGFR-2; hKDR; not shown: human IgG1 Fc
# In short: as §5
# [17] = target: T6, human vascular endothelial growth …; experiment: radioactive equilibrium binding (assay not given)
# [18] = target: full-length human KDR on cells (human, UniProt P35968 20-1356); experiment: cell-based or functional assay; remark: listed apart in the source
# [19] = target: T1, mouse vascular endothelial growth …; experiment: Kd for Flk-1 against clone 159Q(8)L
binder,measurement,setting,value
"CT-01 (designed binder, Core form of CT-01) EVVAATPTSLLISWRHPHFPTRYYRITYGETGGNSPVQEFTVPLQPPTATISGLKPGVDYTITVYAVTDGRNGRLLSIPISINYRT",binding result,[1],binds
"E19 (designed binder, Del 1-8 10Fn3 clone; Flag-tagged in vitro translated protein in the radioactive assay, His6-tagged E. coli protein in BIAcore and cell assays; tags left out) EVVAATPTSLLISWRHPHFPTRYYRITYGETGGNSPVQEFTVPLQPPTATISGLKPGVDYTITGYAVTVERNGRHLMTPISINYRT",Kd,[2],< 0.7 nM
same,Kd,[3],< 1.3 nM
same,EC50,[4],7.6 nM
same,"Inhibition of VEGF-induced proliferation, Ba/F3-KDR (IC50, nM)",[5],12.3 nM
same,"Inhibition of VEGF-induced proliferation, Ba/F3-Flk (IC50, nM)",[6],5.8 nM
same,"Inhibition of VEGF-induced proliferation of HUVEC cells (IC50, nM)",[7],11.8 nM
same,EC50,[8],5.3 nM
same,Kd,[9],0.34 nM
same,koff,[9],0.000223 s⁻¹
same,kon,[9],660000 M⁻¹ s⁻¹
same,Kd,[10],0.06 nM
same,koff,[10],1.7e-05 s⁻¹
same,kon,[10],300000 M⁻¹ s⁻¹
"E29 (designed binder, Del 1-8 10Fn3 clone; Flag-tagged in vitro translated protein in the radioactive assay, His6-tagged E. coli protein in BIAcore and cell assays; tags left out) EVVAATPTSLLISWRHPHFPTRYYRITYGETGGNSPVQEFTVPLQPPTATISGLKPGVDYTITGYAVTVERNGRVLMTPISINYRT",Kd,[2],< 0.9 nM
same,Kd,[3],< 1.5 nM
same,EC50,[4],2.3 nM
same,"Inhibition of VEGF-induced proliferation, Ba/F3-KDR (IC50, nM)",[5],10 nM
same,"Inhibition of VEGF-induced proliferation, Ba/F3-Flk (IC50, nM)",[6],4.7 nM
same,"Inhibition of VEGF-induced proliferation of HUVEC cells (IC50, nM)",[7],8.4 nM
same,EC50,[8],0.6 nM
same,Kd,[9],0.37 nM
same,koff,[9],0.000288 s⁻¹
same,kon,[9],790000 M⁻¹ s⁻¹
same,Kd,[10],0.19 nM
same,koff,[10],7e-05 s⁻¹
same,kon,[10],360000 M⁻¹ s⁻¹
"VR28 (designed binder, scaffold said to be unchanged from wild type 10Fn3; Flag-tagged in vitro translated protein in the radioactive assay, His6-tagged E. coli protein in BIAcore; tags left out; also called VR28 (I69T)) VSDVPRDLEVVAATPTSLLISWRHPHFPTRYYRITYGETGGNSPVQEFTVPLQPPTATISGLKPGVDYTITGYAVTVAQNDHELITPISINYRT",binding result,[2],no binding (tested: 100 nM)
same,Kd,[3],11 nM
same,"Binding to 1 nM KDR, %",[11],3%
same,Kd,[12],11 nM
same,Kd,[13],11 nM
same,Kd,[10],13 nM
same,koff,[10],0.00034 s⁻¹
same,kon,[10],30000 M⁻¹ s⁻¹
"159(Q8L) (designed binder, clone 159 with Q8 corrected to the wild type L; His6-tagged E. coli protein in BIAcore, tag left out; also called Clone 159 (Q8L)) VSDVPRDLEVVAATPTSLLISWRHPHFPTRYYRITYGETGGNSPVQEFTVPLQPPAATISGLKPGVDYTITGYAVTMAQSGHELFTPISINYRT",Kd,[10],2 nM
same,koff,[10],0.0001 s⁻¹
same,kon,[10],50000 M⁻¹ s⁻¹
same,Kd,[14],> 3000 nM
"VR28 (designed binder, 10Fn3 clone with WT N-terminus; tag not included; also called VR28 (I69T); VR28 clone) VSDVPRDLEVVAATPTSLLISWRHPHFPTRYYRITYGETGGNSPVQEFTVPLQPPTATISGLKPGVDYTITGYAVTVAQNDHELITPISINYRT",binding result,[15],no binding
same,"Binding to 1 nM KDR, %",[16],3%
same,Kd,[17],11 nM
"M5FL (designed binder, 10Fn3 clone with WT N-terminus; Tail and tag not included here; also called clone M5FL) VSDVPRDLEVVAATPTSLLISWRHPHFPTRYYRITYGETGGNSPVQEFTVPLQPPLATISGLKPGVDYTITGYAVTKERNGRELFTPISINYRT",HUVEC proliferation assay: decrease in proliferation,[18],~40%
same,fold improvement over the original clone (159Q(8)L),[19],1000 fold
